In publication PMC5477644:

Experiments:
6His-Ska1/Ska2/Ska3 (WT) = 6His-Ska1/Ska2/Ska3 (WT) (UniProt Q96BD8); assay: SEC + other: velocity sedimentation on a sucrose gradient
tubulin (microtubules) = assay: TIRF, tracking of depolymerizing microtubule ends; settings: reference: SKA wild type complex; sites S34

Sequence of Ska3 (C13orf3, RAMA1) (Q8IX90 whole entry, looked up, stated change not applied): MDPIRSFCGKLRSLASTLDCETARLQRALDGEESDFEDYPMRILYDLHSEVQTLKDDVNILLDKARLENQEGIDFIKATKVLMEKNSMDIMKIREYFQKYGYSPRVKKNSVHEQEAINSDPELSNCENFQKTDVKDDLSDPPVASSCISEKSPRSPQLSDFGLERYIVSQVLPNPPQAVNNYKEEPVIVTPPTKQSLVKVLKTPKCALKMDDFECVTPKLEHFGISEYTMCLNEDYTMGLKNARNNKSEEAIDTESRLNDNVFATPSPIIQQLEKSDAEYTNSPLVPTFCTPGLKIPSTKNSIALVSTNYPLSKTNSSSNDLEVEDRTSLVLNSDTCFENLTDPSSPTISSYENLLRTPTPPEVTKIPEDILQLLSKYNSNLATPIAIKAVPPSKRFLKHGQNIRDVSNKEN
Sequence of 6His-Ska1/Ska2/Ska3 (WT) (from UniProt Q96BD8 1-255; Q8WVK7 1-121; Q8IX90 1-412) (complex) (Q96BD8 whole entry): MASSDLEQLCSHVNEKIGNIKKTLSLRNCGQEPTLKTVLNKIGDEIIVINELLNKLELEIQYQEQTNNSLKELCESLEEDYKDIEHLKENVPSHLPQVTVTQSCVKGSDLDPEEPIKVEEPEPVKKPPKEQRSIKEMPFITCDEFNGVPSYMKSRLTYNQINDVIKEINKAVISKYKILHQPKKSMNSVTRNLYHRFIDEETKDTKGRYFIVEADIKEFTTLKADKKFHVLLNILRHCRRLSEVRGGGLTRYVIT
Sequence of 6His-Ska1/Ska2/Ska3 (WT) (from UniProt Q96BD8 1-255; Q8WVK7 1-121; Q8IX90 1-412) (complex) (Q8WVK7 whole entry): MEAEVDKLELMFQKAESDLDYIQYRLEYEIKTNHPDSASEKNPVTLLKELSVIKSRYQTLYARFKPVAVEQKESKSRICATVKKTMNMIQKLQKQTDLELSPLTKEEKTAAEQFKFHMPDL
Sequence of 6His-Ska1/Ska2/Ska3 (WT) (from UniProt Q96BD8 1-255; Q8WVK7 1-121; Q8IX90 1-412) (complex) (Q8IX90 whole entry): as the sequence (Q8IX90 whole entry, looked up, stated change not applied) above

stoichiometry N (6His-Ska1/Ska2/Ska3 (WT)) | other: median post/pre-conversion intensity ratio (tubulin (microtubules)) | Substance
2 |  | 6His-Ska1/Ska2/Ska3 (WT) (from UniProt Q96BD8 1-255; Q8WVK7 1-121; Q8IX90 1-412) (complex)
 | same; reference 1.01 | Ska3 (C13orf3, RAMA1) (from UniProt Q8IX90) SKA S34A complex
